Experimental findings from patent publication US20060063208A1 are described below.

The target in the experiment is BMP-2 (human) (UniProt P12643). The experiment can be described thus: cell-based or functional assay.
BMP-2 (human), sequence (P12643 283-396 limits assumed): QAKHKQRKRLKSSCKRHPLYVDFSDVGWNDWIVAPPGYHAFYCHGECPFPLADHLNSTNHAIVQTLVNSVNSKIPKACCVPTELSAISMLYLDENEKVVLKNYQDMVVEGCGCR

On to “DRAGON (DRG11-Responsive Axonal Guidance and Outgrowth of Neurite), recombinant, expressed in transfected cells (from UniProt Q7TQ33 49-415) (receptor)”, for which the BMP-dependent signaling, Msx2-Luc reporter in 10T1/2 and HepG2 cells is 8 fold; the luciferase activity of the BRE-luc reporter in LLC-PK1 cells came to 14 fold.
